Results published in patent US10000775B2, “Biosynthesis of 1-undecene and related terminal olefins” (The Regents of the University of California, priority 2013, dated 2018).

Legend:
E. coli = test: 1-undecene production in E. coli overexpressing PFL_4321, PFL_0203 or homologs, with or without UcFatB2; format: cell-based; conditions: E. coli BL21 Star (pZR60), headspace GC-MS
Experimental: E. coli, P. aeruginosa PAO-1, and P. aeruginosa PA14 strains were grown in 5 mL of LB medium overnight at 37° C., while all the other Pseudomonas and Acinetobacter strains were grown at 30° C. […] The culture was shaken in a sealed 20 mL headspace vial (Agilent certified) containing a stir bar at 30° C. for 36 hr. After incubation, an SPME fiber (30 μm polydimethylsiloxane, Supelco, Sigma-Aldrich Group, Bellefonte, Pa.) was manually inserted into the headspace vial and incubated at 25° C. for 12.5 min. GC-MS analysis was conducted on a Varian CP-3800 instrument equipped with a Varian 320-MS. […] The signals of the 1-alkenes were identified and quantified by comparison with authentic samples (MP Biomedicals), which were diluted in ethyl acetate, added to 5 mL of culture medium in a sealed headspace vial, and sampled by the same SPME-GCMS method as described above.
[…] 1-Undecene production was detected by using the SPME-GCMS method. […]
To investigate whether PFL_0203 was facilitating the production of 1-undecene, this gene was individually expressed in E. coli and the cells were monitored for 1-undecene production. […]

[1] = Stoichiometry determination in single-turnover reactions; format: biochemical
Experimental: FIG. 27 illustrates the requirement for O2 for PFL_4321 activity.
To investigate 1-undecene formation and the O2 consumption, 0.5 mL of reaction mixture was prepared to contain 50 mM MES buffer (pH 6.2), 300 mM NaCl, 45 μM PFL_4321-Fe(II), and 500 μM LA (25 mM stock solution of LA sodium salt was prepared in 2% tergitol; tergitol is not required for <150 μM of LA). MES buffer (pH 6.2) was selected to reach slightly higher enzymatic activity than other buffers such as Bis-Tris (pH 6.0-7.0), Tris (pH 7.5-8.5), MOPS (pH 6.5-7.5), and HEPES (pH 6.8-8.0). The reaction was performed in a sealed headspace vial, initiated by adding PFL_4321 at room temperature and quenched by injecting equal volume of 5 M NaOH. 1-undecene production was analyzed and quantified using the SPME-GCMS method. The correlations of total 1-undecene produced and enzyme used were further determined varying PFL_4321 concentrations (40-1000 μM), and similar single turnover reactions were obtained in all assays (˜0.7-0.8 molecule of 1-undecene per molecule of PFL_4321-Fe(II)). O2 concentration was measured in a sealed reaction chamber (0.5 mL) with an integrated oxygen electrode unit (Oxygraph Plus System, Hansatech Instruments, UK). For the control group, LA was omitted from the reaction mixture.

[2] = test system: Saccharomyces cerevisiae S288c; test: Small-scale 1-alkene production in S. cerevisiae; format: cell-based; conditions: expression of PFL_4321, 30° C., 36 hours
Experimental: FIG. 25 illustrates GC-MS analysis of 1-undecene and nonene productions from Saccharomyces cerevisiae S288c (pESC_URA_PFL_4321). Saccharomyces cerevisiae S288c (pESC_URA_PFL_4321) was cultured in YPD media in sealed headspace vial at 30° C. for 36 hours before sampling using SPME-GCMS method.
PFL_4321 was PCR-amplified by using pESC-und-F/-R as primers (Table 1) and pZR59 as template, digested with BamH1/Sal1, and ligated into the pESC-URA vector to yield pESC-PFL_4321. S. cerevisiae was then transformed with pESC-PFL_4321 using the lithium acetate method outlined in the pESC-URA manual (Stratagene). Transformants were selected by […]. The cultures were grown in yeast-peptone media supplemented with 1% galactose in headspace GC vials at 30° C. for 36 hr before SPME-GCMS analysis.

[3] = measured stoichiometry, aerobic

B1: PFL_4321: protein of 261 amino acids from Pseudomonas fluorescens Pf-5; non-heme iron (II)-dependent enzyme converting medium-chain fatty acids into terminal olefins (protein, listed as Pseudomonas fluorescens)
chain: MIDTFSRTGPLMEAASYPAWTQQLIQDCSESKRRVVEHELYQRMRDNKLSAKVMRQYLIGGWPVVEQFALYMAQNLTKTRFARHPGEDMARRWLMRNIRVELNHADYWVHWSRAHGVTLEDLQAQQVPPELHALSHWCWHTSSADSLIVAIAATNYAIEGATGEWSALVCSNGIYAAAFPEEDRKRAMKWLKMHAQYDDAHPWEALEIIVTLAGLNPTKALQAELRQAICKSYDYMYLFLERCMQQEKTAVTRERLALAEG
In the case of B1, the 1-undecene produced (E. coli) is reported as roughly 5 µg/mL, the “1-undecene produced per molecule of PFL_4321-Fe(II)” value [1, 3] is reported as “approximately one” and the “O2 consumed per molecule of PFL_4321-Fe(II)” value [1, 3] is reported as “approximately one”. The “total 1-undecene produced per enzyme used” value ([1]; single turnover reactions, PFL_4321 40-1000 μM) was 0.7-0.8 molecule of 1-undecene per molecule of PFL_4321-Fe(II) and the “production of 1-alkenes in Saccharomyces cerevisiae” value [2] was “led to the production of 1-undecene and 1-nonene in comparable amounts”.
